Measurements reported in publication PMC8994517 (Nature, 2021).

Target: Human Hsp90α (human, UniProt P07900 1-732)
Assay: cryo-EM structure

B1: Human p23 (natural protein, UniProt Q15185 1-160, looked up)
chain: MQPASAKWYDRRDYVFIEFCVEDSKDVNVNFEKSKLTFSCLGGSDNFKHLNEIDLFHCIDPNDSKHKRTDRSILCCLRKGESGQSWPRLTKERAKLNWLSVDFNNWKDWEDDSDEDMSNFDRFSEMMNNMGGDEDVDLPEVDGADDDSQDSDDEKMPDLE
  stoichiometry N: 1 p23 per Hsp90 dimer
